# According to patent US12065471B2, “B*44 restricted peptides for use in immunotherapy against cancers and related methods” (Immatics Biotechnologies GmbH, priority 2018, dated 2024):
# Molecular target: HLA-B*44:05 (Homo sapiens, UniProt P01889, A223V/A65T/A93T/A95T/D201E/D98Y/E176V/E187L/E204Q/E69K/G107R/H137Y/K202T/L105A/L119I/N104T/N87E/Q56L/Q94N/R106L/R155S/R180D/S101N/S121R/S35A/S48T/T118I/V36M/W191S/Y91S)
# Test: MHC binding assay (UV-ligand exchange, β2m ELISA, peptide exchange yield)
# Conditions: binding to HLA-B*44:05
# Outline: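 Peptide–HLA complexes formed by UV-ligand exchange of a UV-cleavable peptide for the test peptide. Exchange yield measured by β2m ELISA: complexes diluted 100-fold and captured on streptavidin, detected with HRP anti-β2m and TMB, read at 450 nm. Quantified against refolded HLA-A*02:01/MLA-001 monomer standards, 15-500 ng/ml.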
row,Substance,"Peptide exchange (MHC class I binding score, peptide exchange yield)"
1,208 (SEFLLRIF; listed as Homo sapiens) [compound 208],++ (>20% = ++)
2,122 (GESVSWHLF; listed as Homo sapiens) [compound 122],+++ (>50 = +++)
3,182 (EELHAALSEW; listed as Homo sapiens) [compound 182],++++ (>75% = ++++)
4,90 (EESLLSSW; listed as Homo sapiens) [compound 90],+++ (>50 = +++)
5,284 (SQYPHTHTF; listed as Homo sapiens) [compound 284],+++ (>50 = +++)
6,261 (QEWDPQKTEKY; listed as Homo sapiens) [compound 261],+++ (>50 = +++)
7,110 (EVEVGEVKSW; listed as Homo sapiens) [compound 110],+ (>10% = +)
8,183 (KEMQVTISQQL; listed as Homo sapiens) [compound 183],++++ (>75% = ++++)
9,123 (DEINHQSL; listed as Homo sapiens) [compound 123],++ (>20% = ++)
10,299 (AEVQIARKL; listed as Homo sapiens) [compound 299],+++ (>50 = +++)
11,177 (LEEPMPFFY; listed as Homo sapiens) [compound 177],+ (>10% = +)
12,251 (DESADSEPHKY; listed as Homo sapiens) [compound 251],+ (>10% = +)
13,105 (EEIFKTLNY; listed as Homo sapiens) [compound 105],+++ (>50 = +++)
14,121 (YENIPVDKV; listed as Homo sapiens) [compound 121],+++ (>50 = +++)
15,241 (QELLDIANYL; listed as Homo sapiens) [compound 241],++++ (>75% = ++++)
16,293 (QEDEQLLLRF; listed as Homo sapiens) [compound 293],+++ (>50 = +++)
17,214 (SVNPIIYGF; listed as Homo sapiens) [compound 214],++ (>20% = ++)
18,226 (AEDNMVTSY; listed as Homo sapiens) [compound 226],+++ (>50 = +++)
19,298 (KEVASNSEL; listed as Homo sapiens) [compound 298],+++ (>50 = +++)
20,231 (AEALVDGKWQEF; listed as Homo sapiens) [compound 231],+++ (>50 = +++)
21,111 (QEIDQKRLEF; listed as Homo sapiens) [compound 111],++ (>20% = ++)

row,Substance,"Peptide exchange (MHC class I binding score, peptide exchange yield)"
1,99 (SECVKSLSF; listed as Homo sapiens) [compound 99],++++ (>75% = ++++)
2,291 (DEQLLLRF; listed as Homo sapiens) [compound 291],++ (>20% = ++)
3,207 (LEGGGRGGEF; listed as Homo sapiens) [compound 207],++ (>20% = ++)
4,211 (LEMLDAHRL; listed as Homo sapiens) [compound 211],+++ (>50 = +++)
5,268 (EDLAVHLY; listed as Homo sapiens) [compound 268],+ (>10% = +)
6,84 (AETSYVKVLEY; listed as Homo sapiens) [compound 84],+++ (>50 = +++)
7,1 (KEVDPASNTYTL; listed as Homo sapiens) [compound 1],++ (>20% = ++)
8,228 (LEYEAPKLY; listed as Homo sapiens) [compound 228],++ (>20% = ++)
9,116 (AEANPRDLGASW; listed as Homo sapiens) [compound 116],+++ (>50 = +++)
10,55 (TEFHMQFSY; listed as Homo sapiens) [compound 55],++++ (>75% = ++++)
11,136 (EEMPEEIHL; listed as Homo sapiens) [compound 136],+++ (>50 = +++)
12,145 (EELRMLSF; listed as Homo sapiens) [compound 145],++ (>20% = ++)
13,225 (VEAATVSKW; listed as Homo sapiens) [compound 225],+++ (>50 = +++)
14,130 (REYQEVMNSKL; listed as Homo sapiens) [compound 130],+++ (>50 = +++)
15,273 (TEFELLHQV; listed as Homo sapiens) [compound 273],+++ (>50 = +++)
16,224 (TETDIDREY; listed as Homo sapiens) [compound 224],++ (>20% = ++)
17,133 (IEAPKLMVV; listed as Homo sapiens) [compound 133],+ (>10% = +)
18,240 (MELQVSSGF; listed as Homo sapiens) [compound 240],+++ (>50 = +++)
19,95 (AAFEDAQGHIW; listed as Homo sapiens) [compound 95],++++ (>75% = ++++)
20,38 (DEVRFFKGNKY; listed as Homo sapiens) [compound 38],++ (>20% = ++)

# Further lines, results first:
row,"Peptide exchange (MHC class I binding score, peptide exchange yield)",Substance
1,+++ (>50 = +++),384 (LDGIPTAGW; listed as Homo sapiens) [compound 384]
2,+++ (>50 = +++),418 (GEPRKLLTQDW; listed as Homo sapiens) [compound 418]
3,+++ (>50 = +++),347 (LENPHVQSV; listed as Homo sapiens) [compound 347]
4,++ (>20% = ++),333 (SEGTLPYSY; listed as Homo sapiens) [compound 333]
5,+++ (>50 = +++),442 (KESDAGKYY; listed as Homo sapiens) [compound 442]
6,++++ (>75% = ++++),311 (REKDLPNYNW; listed as Homo sapiens) [compound 311]
7,++++ (>75% = ++++),301 (AERIMFSDL; listed as Homo sapiens) [compound 301]
8,+++ (>50 = +++),437 (HEDPSGSLHL; listed as Homo sapiens) [compound 437]
9,+++ (>50 = +++),372 (EEYKFPSLF; listed as Homo sapiens) [compound 372]
10,+++ (>50 = +++),446 (AENIKKFLY; listed as Homo sapiens) [compound 446]
11,+++ (>50 = +++),324 (QELSSIRQF; listed as Homo sapiens) [compound 324]
12,+++ (>50 = +++),427 (AEMLGSVVGNW; listed as Homo sapiens) [compound 427]
13,+++ (>50 = +++),322 (REESDWHYL; listed as Homo sapiens) [compound 322]
14,+++ (>50 = +++),376 (SESDGIEQL; listed as Homo sapiens) [compound 376]
15,+++ (>50 = +++),310 (FELECPVKY; listed as Homo sapiens) [compound 310]
16,+++ (>50 = +++),409 (QEAKPRATW; listed as Homo sapiens) [compound 409]
17,++++ (>75% = ++++),336 (QEVNISLHY; listed as Homo sapiens) [compound 336]
18,+++ (>50 = +++),350 (EEMLENVSL; listed as Homo sapiens) [compound 350]
19,++++ (>75% = ++++),323 (SETAVVNVTY; listed as Homo sapiens) [compound 323]
20,+++ (>50 = +++),402 (IETSSEYFNF; listed as Homo sapiens) [compound 402]
21,+++ (>50 = +++),452 (NEVDGEYRY; listed as Homo sapiens) [compound 452]
22,+++ (>50 = +++),388 (VEIVTIPSL; listed as Homo sapiens) [compound 388]
23,+++ (>50 = +++),386 (EESDYITHY; listed as Homo sapiens) [compound 386]
24,++ (>20% = ++),399 (IEQADWPEI; listed as Homo sapiens) [compound 399]
25,+++ (>50 = +++),448 (ALSPVPSHW; listed as Homo sapiens) [compound 448]
26,++++ (>75% = ++++),332 (SEADWLRFW; listed as Homo sapiens) [compound 332]
